pKd: −log10 of the molar value.
How the values were obtained:
[1] = target: mini-collagen peptide H-Gly-Pro-Arg-Gly-(Pro-Hyp-Gly)12-NH2; assay: SPR (Biacore), peptide immobilized, equilibrium fit, apparent KD
[2] = target: mini-collagen peptide H-Gly-Pro-Arg-Gly-(Pro-Hyp-Gly)12-NH2; assay: SPR (Biacore); ratio of KD, ColHS2bS3 = 1.00
[3] = target: collagen fibril (porcine skin fiber, Nippi, Inc) (porcine); assay: collagen fibril binding assay (spin column, SDS-PAGE of the unbound protein, Scatchard plot)

| Substance | pKd [1] | Ratio [2] | pKd [3] |
| --- | --- | --- | --- |
| tandem collagen-binding domain (s3a-s3b) derived from Clostridium histolyticum class I collagenase ColG (from UniProt Q9X721 886-1118) | 4.35 | 0.1 |  |
| collagen-binding domain s3b derived from Clostridium histolyticum class I collagenase ColG (from UniProt Q9X721 1003-1118) | 4.34 | 0.102 |  |
| collagen-binding domain s3a derived from Clostridium histolyticum class I collagenase ColG (from UniProt Q9X721 886-1003) |  |  | 4.00 |

Reference: patent US20190376053A1
